Experimental findings from article PMC8464039 (Nucleic Acids Research, 2021) are described below.

Series [1] addresses T1, CsyRE3 (Pseudomonas aeruginosa, UniProt Q02ML9;Q02MM0;Q02MM1;Q02MM2 1-434;1-327;1-342;1-187, R207E;R219E;R258E).
T1 sequence 1: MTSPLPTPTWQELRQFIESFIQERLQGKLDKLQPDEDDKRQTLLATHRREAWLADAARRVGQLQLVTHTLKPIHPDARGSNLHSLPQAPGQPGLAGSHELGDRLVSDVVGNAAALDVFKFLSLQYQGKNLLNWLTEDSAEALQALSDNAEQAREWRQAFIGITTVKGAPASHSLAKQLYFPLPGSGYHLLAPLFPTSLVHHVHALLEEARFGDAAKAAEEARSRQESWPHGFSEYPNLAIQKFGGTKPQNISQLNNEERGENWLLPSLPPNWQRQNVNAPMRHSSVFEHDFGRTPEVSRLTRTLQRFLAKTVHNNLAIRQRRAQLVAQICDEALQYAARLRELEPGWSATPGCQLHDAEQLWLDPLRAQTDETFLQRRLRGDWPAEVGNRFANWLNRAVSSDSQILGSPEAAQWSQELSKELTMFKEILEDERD
T1 sequence 2: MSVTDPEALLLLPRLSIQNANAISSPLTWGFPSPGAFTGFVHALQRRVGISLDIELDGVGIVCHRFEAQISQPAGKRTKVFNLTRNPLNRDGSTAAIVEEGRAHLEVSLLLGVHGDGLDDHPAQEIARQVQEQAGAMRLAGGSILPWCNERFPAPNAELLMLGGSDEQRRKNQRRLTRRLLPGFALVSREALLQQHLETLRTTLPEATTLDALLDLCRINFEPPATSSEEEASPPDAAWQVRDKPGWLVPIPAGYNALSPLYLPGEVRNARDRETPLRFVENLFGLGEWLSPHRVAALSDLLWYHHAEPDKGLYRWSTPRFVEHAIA
T1 sequence 3: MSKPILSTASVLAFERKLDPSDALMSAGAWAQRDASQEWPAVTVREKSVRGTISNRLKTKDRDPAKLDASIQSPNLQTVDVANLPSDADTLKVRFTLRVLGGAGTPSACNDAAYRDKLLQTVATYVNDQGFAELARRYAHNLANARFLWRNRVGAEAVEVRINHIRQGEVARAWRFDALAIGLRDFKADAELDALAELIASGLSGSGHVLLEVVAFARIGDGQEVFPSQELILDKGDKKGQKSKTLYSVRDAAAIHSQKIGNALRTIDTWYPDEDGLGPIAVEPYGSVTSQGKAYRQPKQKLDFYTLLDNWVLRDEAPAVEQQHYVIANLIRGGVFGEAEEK
T1 sequence 4: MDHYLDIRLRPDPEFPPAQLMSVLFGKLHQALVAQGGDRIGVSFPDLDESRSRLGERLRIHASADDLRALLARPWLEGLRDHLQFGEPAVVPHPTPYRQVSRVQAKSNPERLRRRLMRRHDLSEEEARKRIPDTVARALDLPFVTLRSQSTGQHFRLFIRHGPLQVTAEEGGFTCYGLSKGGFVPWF
Kind of series: EMSA.

In series [2] the target is T2, Csy complex (crRNA-guided surveillance complex) (Pseudomonas aeruginosa, UniProt Q02ML9;Q02MM0;Q02MM1;Q02MM2 1-434;1-327;1-342;1-187).
T2 sequence 1: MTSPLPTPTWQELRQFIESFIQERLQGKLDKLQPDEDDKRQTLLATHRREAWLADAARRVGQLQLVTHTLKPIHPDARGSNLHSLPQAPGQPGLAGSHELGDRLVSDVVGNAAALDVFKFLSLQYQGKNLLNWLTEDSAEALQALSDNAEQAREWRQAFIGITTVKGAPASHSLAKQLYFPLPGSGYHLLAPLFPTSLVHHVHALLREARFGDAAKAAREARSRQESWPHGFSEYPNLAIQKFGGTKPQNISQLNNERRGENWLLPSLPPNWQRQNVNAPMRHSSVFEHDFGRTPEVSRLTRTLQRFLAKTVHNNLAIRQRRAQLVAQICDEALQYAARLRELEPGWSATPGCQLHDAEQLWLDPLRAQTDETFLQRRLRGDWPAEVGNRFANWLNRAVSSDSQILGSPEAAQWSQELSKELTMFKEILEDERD
T2 sequence 2: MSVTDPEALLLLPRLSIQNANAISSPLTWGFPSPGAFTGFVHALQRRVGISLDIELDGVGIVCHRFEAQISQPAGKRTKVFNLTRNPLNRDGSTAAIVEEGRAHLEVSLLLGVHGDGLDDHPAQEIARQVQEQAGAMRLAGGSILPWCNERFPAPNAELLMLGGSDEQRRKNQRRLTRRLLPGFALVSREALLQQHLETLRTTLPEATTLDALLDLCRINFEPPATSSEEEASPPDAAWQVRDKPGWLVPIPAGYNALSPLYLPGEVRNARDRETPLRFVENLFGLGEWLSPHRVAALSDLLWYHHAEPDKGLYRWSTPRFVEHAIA
T2 sequence 3: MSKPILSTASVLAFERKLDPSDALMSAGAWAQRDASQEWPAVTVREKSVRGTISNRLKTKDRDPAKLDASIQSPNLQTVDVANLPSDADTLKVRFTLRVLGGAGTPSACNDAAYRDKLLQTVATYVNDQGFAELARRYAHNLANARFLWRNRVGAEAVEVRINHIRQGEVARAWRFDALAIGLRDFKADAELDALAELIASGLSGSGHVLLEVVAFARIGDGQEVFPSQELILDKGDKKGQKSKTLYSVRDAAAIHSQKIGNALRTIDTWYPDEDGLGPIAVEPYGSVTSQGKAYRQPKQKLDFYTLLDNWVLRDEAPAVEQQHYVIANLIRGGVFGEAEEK
T2 sequence 4: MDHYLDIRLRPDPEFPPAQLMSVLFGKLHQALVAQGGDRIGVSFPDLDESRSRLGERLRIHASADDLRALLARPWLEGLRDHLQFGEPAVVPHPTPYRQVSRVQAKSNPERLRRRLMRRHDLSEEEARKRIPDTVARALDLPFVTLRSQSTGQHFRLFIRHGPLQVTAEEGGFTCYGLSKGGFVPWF
The series is described as follows: EMSA. Background: Mobility shift assays separate free from complexed probe on a gel.

Series [3] deals with the molecule itself. The series is described as follows: cryo-EM structure.
Series [4] concerns the target T2, Csy complex (crRNA-guided surveillance …). The series is described as follows: competition.

By stoichiometry N is commonly meant a count of units in the complex or per binding partner.

B1: dsDNASP (specific target, 54 bp) (dsDNA)
DNA 1: GGAAGCCATCCAGGTAGACGCGGACATCAAGCCCGCCGTGAAGGTGCAGCTGCT
DNA 2: AGCAGCTGCACCTTCACGGCGGGCTTGATGTCCGCGTCTACCTGGATGGCTTCC
Consider B1, for which the binding result in series [1] is recorded as “no binding”; in series [2], “binds”.

B2: Cas7f subunit of the Csy complex (natural protein, P. aeruginosa)
chain: MSKPILSTASVLAFERKLDPSDALMSAGAWAQRDASQEWPAVTVREKSVRGTISNRLKTKDRDPAKLDASIQSPNLQTVDVANLPSDADTLKVRFTLRVLGGAGTPSACNDAAYRDKLLQTVATYVNDQGFAELARRYAHNLANARFLWRNRVGAEAVEVRINHIRQGEVARAWRFDALAIGLRDFKADAELDALAELIASGLSGSGHVLLEVVAFARIGDGQEVFPSQELILDKGDKKGQKSKTLYSVRDAAAIHSQKIGNALRTIDTWYPDEDGLGPIAVEPYGSVTSQGKAYRQPKQKLDFYTLLDNWVLRDEAPAVEQQHYVIANLIRGGVFGEAEEK
Consider B2, for which the “stoichiometry N” value in series [3] is 6.

B3: dsDNANS (non-specific, 54 bp) (dsDNA)
DNA 1: GAGCGACTACGACATGAGCGCGCAGCTAAGACCGCCCGTAGATGCGTCGAGCGT
DNA 2: ACGCTCGACGCATCTACGGGCGGTCTTAGCTGCGCGCTCATGTCGTAGTCGCTC
With B3, the binding result in series [1] and in series [2] was “no binding” in each case.

B4: dsDNANS unlabeled (dsDNA)
DNA 1: GAGCGACTACGACATGAGCGCGCAGCTAAGACCGCCCGTAGATGCGTCGAGCGT
DNA 2: ACGCTCGACGCATCTACGGGCGGTCTTAGCTGCGCGCTCATGTCGTAGTCGCTC
For the molecule B4, the binding result in series [4] is “no binding”.
